Test results: article PMC8027947, “Nucleoside Metabolism Is Induced in Common Bean During Early Seedling Development” (Frontiers in Plant Science, 2021)

Assays:
[1] = substrate: O=c1[nH]c(=O)c2ncn([C@@H]3O[C@H](CO)[C@@H](O)[C@H]3O)c2[nH]1; assay: HPLC of nucleoside hydrolysis, Michaelis-Menten; type: biochemical, Phaseolus vulgaris; conditions: 50 mM Tris-HCl pH 7.5, 1 mM DTT, 40 °C, apparent Km
Text: (§1) HPLC of nucleoside hydrolysis, Michaelis-Menten on PvNSH2

[2] = substrate: OC[C@H]1O[C@@H](n2cnc3c(O)ncnc32)[C@H](O)[C@@H]1O; assay: HPLC of nucleoside hydrolysis, Michaelis-Menten; type: biochemical, Phaseolus vulgaris; conditions: 50 mM Tris-HCl pH 7.5, 1 mM DTT, 40 °C, apparent Km
Text: as §1

B1: PvNSH2 (Phaseolus vulgaris) (protein)
chain: MAADTEPKKIIIDTDPGIDDAMAIFVALQSPEIEVIGLTTIYGNVYTTLATRNALHLLEVAGRTDIPVAEGTHLTLTKGTKLRIADFVHGADGLGNQNFPPPKGKPIEESAASFLVRQAKLNPGKVTVVALGPLTNIALAIELDPEFVKNIGQIVILGGAFAVNGNVNPAAEANIFGDPDAADVVFTSGADILALGINVTHQVILTSSDREILASSNGKFAQYLHKILDVYFSYHQESYNTKGVYLHDPTVVLAAVDPSLVTCIEGIVRVQTSGITRGLTLLYNKQKRFGEIHEWSNKPTVKVAVTVDAPRVMKLVMDRLLDS
notes: no N. benthamiana NSH1 detected by MS; locus assigned by print order
Work on B1 yielded a Km [1] of 120 ± 20 µM, a kcat [1] of 13.2 ± 0.26 s⁻¹ and a kcat/Km [1] of 116000 ± 15200 M⁻¹ s⁻¹. The Km [2] was 210 ± 20 µM, the kcat [2] was 2.91 ± 0.14 s⁻¹ and the kcat/Km [2] was 13700 ± 640 M⁻¹ s⁻¹.
